Patent US9187525B2, “Methods of treating ophthalmic diseases using NPR-B agonists” (Shire Orphan Therapies GmbH, dated 2015)
Numbered stars: 1 amine (or outer) side, 2 acyl side, 3 side chain; on linkers, the order of the positions; unused ones are H or OH. Square brackets hold non-standard residues; d marks the D form. Primed or numbered codes have the meaning given here. Ends that are not written are not given here. * marks the point of attachment. Pro(trans-4-NH2) = O=C([C@@H]1C[C@@H](N[*:3])CN1[*:1])[*:2]; Sni = (S)-nipecotic acid, O=C([C@H]1CCCN([*:1])C1)[*:2]; cPrCO(1-aminomethyl) = O=C(C1(CN[*:1])CC1)[*:2]; Cya = N[C@@H](CS(=O)(=O)O)C(=O)O; Hyp = O=C(O)[C@@H]1C[C@@H](O)CN1; dTle = CC(C)(C)[C@@H](N)C(=O)O; NMeL = CN[C@@H](CC(C)C)C(=O)O; Chg = N[C@H](C(=O)O)C1CCCCC1; Hyp(2581) = not defined here; NMeK = CN[C@@H](CCCCN)C(=O)O; orn(Me2) = not defined here; Nle = CCCC[C@H](N)C(=O)O; Octanoyl = CCCCCCCC(=O)*; dAbu = CC[C@@H](N)C(=O)O; 1270 = not defined here; 1860 = not defined here; 2797 = not defined here; 3806 = not defined here; 3816 = not defined here; 4956 = not defined here; 565 = not defined here; 933 = not defined here; leu = not defined here; Ac3c = NC1(C(=O)O)CC1; Occ = octanoic acid

T1: natriuretic peptide receptor-B (human)
T1 chain: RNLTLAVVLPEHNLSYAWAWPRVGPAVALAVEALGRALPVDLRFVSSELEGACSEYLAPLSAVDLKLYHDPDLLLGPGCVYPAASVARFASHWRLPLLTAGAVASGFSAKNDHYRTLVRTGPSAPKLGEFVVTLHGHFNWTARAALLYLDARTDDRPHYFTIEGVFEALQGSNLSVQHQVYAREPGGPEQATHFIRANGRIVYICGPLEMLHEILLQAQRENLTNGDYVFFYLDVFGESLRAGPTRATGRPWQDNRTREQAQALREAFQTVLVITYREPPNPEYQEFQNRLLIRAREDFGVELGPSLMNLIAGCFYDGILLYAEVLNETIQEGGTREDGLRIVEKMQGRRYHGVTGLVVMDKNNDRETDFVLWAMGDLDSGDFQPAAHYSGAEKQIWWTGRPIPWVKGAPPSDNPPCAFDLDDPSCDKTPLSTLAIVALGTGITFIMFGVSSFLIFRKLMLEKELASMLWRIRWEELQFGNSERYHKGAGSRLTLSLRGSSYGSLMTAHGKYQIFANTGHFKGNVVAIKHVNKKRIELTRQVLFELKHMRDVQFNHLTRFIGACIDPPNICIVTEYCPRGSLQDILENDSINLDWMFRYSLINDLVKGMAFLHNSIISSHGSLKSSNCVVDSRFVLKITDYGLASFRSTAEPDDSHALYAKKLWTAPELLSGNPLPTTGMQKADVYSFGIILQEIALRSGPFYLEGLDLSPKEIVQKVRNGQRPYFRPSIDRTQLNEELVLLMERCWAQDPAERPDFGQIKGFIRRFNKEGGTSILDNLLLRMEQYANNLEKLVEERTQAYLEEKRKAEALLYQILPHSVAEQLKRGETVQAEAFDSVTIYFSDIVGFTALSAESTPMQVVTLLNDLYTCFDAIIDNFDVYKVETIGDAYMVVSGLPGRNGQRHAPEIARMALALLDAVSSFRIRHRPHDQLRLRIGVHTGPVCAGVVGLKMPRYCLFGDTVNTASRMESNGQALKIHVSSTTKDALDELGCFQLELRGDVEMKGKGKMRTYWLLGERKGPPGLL


Target: T1, natriuretic peptide receptor-B
Assay: cell-based or functional assay

Binder | EC50 group, cGMP in GTM-3 cells
[Occ][Sni]F[orn(Me2)]L[Hyp][NMeL]SRI-NH2 (reading uncertain; also: printed as Occ-Sni-Phe-orn(Me2)-Leu-Hyp-Nml-Ser-Arg-Ile-NH2) [JAL-1921] | ≤ 15 µM
[Occ][Sni]F[leu]L[Hyp][NMeL][Cya]RI-NH2 (reading uncertain; also: printed as Occ-Sni-Phe-leu-Leu-Hyp-Nml-Cya-Arg-Ile-NH2) [JAL-1922] | ≤ 5 µM
[Occ][Sni]F[orn(Me2)]L[Hyp][NMeL][Cya]RI-NH2 (reading uncertain; also: printed as Occ-Sni-Phe-orn(Me2)-Leu-Hyp-Nml-Cya-Arg-Ile-NH2) [JAL-1923] | ≤ 5 µM
Octanoyl-[dA][dA]FGLKLDR[3816] (reading uncertain; also: printed as Occ-ala-ala-Phe-Gly-Leu-Lys-Leu-Asp-Arg-3816) [JAL-0749] | ≤ 15 µM
[Occ][Sni]F[orn(Me2)]L[Hyp][NMeL]TRI-NH2 (reading uncertain; also: printed as Occ-Sni-Phe-orn(Me2)-Leu-Hyp-Nml-Thr-Arg-Ile-NH2) [JAL-1924] | ≤ 5 µM
[Occ][Sni]F[leu]LX[NMeL]DRI-NH2 (not fully specified (residue 6); printed as Occ-Sni-Phe-leu-Leu-Hyp(Asp(-))-Nml-Asp-Arg-Ile-NH2) [JAL-1928] | ≤ 5 µM
[Occ][Sni]F[leu]L[Hyp(2581)][NMeL]DRI-NH2 (reading uncertain; also: printed as Occ-Sni-Phe-leu-Leu-Hyp(2581)-Nml-Asp-Arg-Ile-NH2) [JAL-1929] | ≤ 5 µM
[Occ][Sni]F[leu]L[Hyp][NMeL]DRI-OH (reading uncertain; also: printed as Occ-Sni-Phe-leu-Leu-Hyp-Nml-Asp-Arg-Ile-OH) [JAL-1930] | ≤ 5 µM
[Occ][Sni]F[orn(Me2)]L[Hyp][NMeL]DRI-OH (reading uncertain; also: printed as Occ-Sni-Phe-orn(Me2)-Leu-Hyp-Nml-Asp-Arg-Ile-OH) [JAL-1931] | ≤ 5 µM
[Occ][Sni]F[leu]L[Hyp][NMeL]TRI-NH2 (reading uncertain; also: printed as Occ-Sni-Phe-leu-Leu-Hyp-Nml-Thr-Arg-Ile-NH2) [JAL-1932] | ≤ 1 µM
[Occ][Sni]F[leu]LX[NMeL]DRI-NH2 (not fully specified (residue 6); printed as Occ-Sni-Phe-leu-Leu-Tap(Asp(-))-Nml-Asp-Arg-Ile-NH2) [JAL-1935] | ≤ 5 µM
[Occ][Sni]F[orn(Me2)]L[Pro(trans-4-NH2)][NMeL]DRI-NH2 (reading uncertain; also: printed as Occ-Sni-Phe-orn(Me2)-Leu-Tap-Nml-Asp-Arg-Ile-NH2) [JAL-1936] | ≤ 1 µM
Octanoyl-[dA][dA]FGLKLDR[3806] (reading uncertain; also: printed as Occ-ala-ala-Phe-Gly-Leu-Lys-Leu-Asp-Arg-3806) [JAL-0751] | ≤ 15 µM
Octanoyl-[dA][dA]FGLKLDR[565] (reading uncertain; also: printed as Occ-ala-ala-Phe-Gly-Leu-Lys-Leu-Asp-Arg-565) [JAL-0752] | ≤ 5 µM
Octanoyl-[dA][dA]FGLKLDR[2797] (reading uncertain; also: printed as Occ-ala-ala-Phe-Gly-Leu-Lys-Leu-Asp-Arg-2797) [JAL-0754] | ≤ 5 µM
Octanoyl-[dV]FGLKLDRI-NH2 [JAL-0756] | ≤ 15 µM
[Occ][dTle]FGLKLDRI-NH2 [JAL-0758] | ≤ 15 µM

Binder | EC50 group, cGMP in GTM-3 cells
[Occ][cPrCO(1-aminomethyl)]FGLKLDRI-NH2 [JAL-0760] | ≤ 15 µM
[Occ][Ac3c]FGLKLDRI-NH2 [JAL-0761] | ≤ 15 µM
Octanoyl-[dAbu]FGLKLDRI-NH2 [JAL-0762] | ≤ 15 µM
Octanoyl-[dS]FGLKLDRI-NH2 [JAL-0763] | ≤ 15 µM
Octanoyl-[dA][dA]FGLKLDRI-NH2 (not fully specified (some residues); printed as Occ-ala-ala-Phe-Gly-Leu-Lys-leu-Asp-Arg-Ile-NH2) [JAL-0769] | ≤ 15 µM
Octanoyl-[dA][dA]FGLKIDRI-NH2 [JAL-0770] | ≤ 15 µM
XAAFGLKVDRI (not fully specified (residue 1, C-terminus); printed as Occ-ala-ala-Phe-Gly-Leu-Lys-Val-Asp-Arg-Ile-NH2) [JAL-0771] | ≤ 15 µM
Octanoyl-[dA][dA]FGLK[Chg]DRI-NH2 [JAL-0772] | ≤ 15 µM
Octanoyl-[dA][dA]FGLK[Nle]DRI-NH2 [JAL-0775] | ≤ 15 µM
Octanoyl-[dA][dA]FGLK[NMeL]DRI-NH2 [JAL-0776] | ≤ 15 µM
Octanoyl-[dA][dA]FGLPLDRI-NH2 [JAL-0781_01] | ≤ 5 µM
Octanoyl-AAFGL[NMeK]LDRI-NH2 (not fully specified (some residues); printed as Occ-ala-ala-Phe-Gly-Leu-Nmk-Leu-Asp-Arg-Ile-) [JAL-0782] | ≤ 15 µM
933-AFGLKLDRI-NH2 (not fully specified (some residues); printed as 933-ala-Phe-Gly-Leu-Lys-Leu-Asp-Arg-Ile-NH2; reading uncertain) [JAL-0786] | ≤ 15 µM
1270-AFGLKLDRI-NH2 (not fully specified (some residues); printed as 1270-ala-Phe-Gly-Leu-Lys-Leu-Asp-Arg-Ile-NH2; reading uncertain) [JAL-0787] | ≤ 15 µM
4956-AFGLKLDRI-NH2 (not fully specified (some residues); printed as 4956-ala-Phe-Gly-Leu-Lys-Leu-Asp-Arg-Ile-NH2; reading uncertain) [JAL-0788] | ≤ 15 µM
Octanoyl-AAFGLKLDR[1860] (not fully specified (some residues); printed as Occ-ala-ala-Phe-Gly-Leu-Lys-Leu-Asp-Arg-1860; reading uncertain) [JAL-0789] | ≤ 5 µM
